Results from the supplement of paper PMC7125110.
± gives the standard error. For some assays here: This sample holds only a part of the variants without activity.

B1: glmS ribozyme (parent)
chain: AUAAAAGCGCCAGAACUACAGAAAUGUAGUUGACGAGGAGGAGGUUUAUCGAAUUUUCGGCGGAUGCCUCCAAA

Assays:
Conditions in all cases: with glucosamine-6-phosphate
glucosamine-6-phosphate [1] = variants of: B1; experiment: kcat; higher = faster cleavage; RNA array
How it was run: (§1)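 Weighted Michaelis–Menten fits across concentrations supplied kcat and KM, based on kobs from one- or two-exponential decay fits to normalised per-tile medians. The data came from barcoded ribozyme variants transcribed in situ by E. coli RNA polymerase on sequenced MiSeq chips and tracked at 37 °C by a hybridised Cy3 probe. Glucosamine-6-phosphate (40 μM to 10 mM) in HEPES/KCl/Mg(OAc)2 buffer was flowed in.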

glucosamine-6-phosphate [2] = variants of: B1; experiment: self-cleavage kobs at 640 uM GlcN6P; higher = faster cleavage; RNA array
How it was run: as §1

glucosamine-6-phosphate [3] = variants of: B1; experiment: self-cleavage kobs at 2500 uM GlcN6P; higher = faster cleavage; RNA array
How it was run: as §1

glucosamine-6-phosphate [4] = variants of: B1; experiment: self-cleavage kobs at 10000 uM GlcN6P; higher = faster cleavage; RNA array
How it was run: as §1

glucosamine-6-phosphate [5] = variants of: B1; experiment: KM; higher = weaker cofactor use; RNA array
How it was run: as §1

glucosamine-6-phosphate [6] = variants of: B1; experiment: self-cleavage kobs at 40 uM GlcN6P; higher = faster cleavage; RNA array
How it was run: as §1

glucosamine-6-phosphate [7] = variants of: B1; experiment: self-cleavage kobs at 160 uM GlcN6P; higher = faster cleavage; RNA array
How it was run: as §1

In the case of A15C U30C, the kcat (glucosamine-6-phosphate [1]) is reported as 0.000215 ± 7.8e-05 s⁻¹, the “self-cleavage kobs at 640 uM GlcN6P” value (glucosamine-6-phosphate [2]) is reported as 8.27e-05 ± 2.3e-05 s⁻¹ and the “self-cleavage kobs at 2500 uM GlcN6P” value (glucosamine-6-phosphate [3]) is reported as 8.21e-05 ± 1.5e-05 s⁻¹. The “self-cleavage kobs at 10000 uM GlcN6P” value (glucosamine-6-phosphate [4]) was 0.000177 ± 2.6e-05 s⁻¹.

U57A C58G was tested, and the kcat (glucosamine-6-phosphate [1]) was 7.04e-05 ± 3.8e-06 s⁻¹, the KM (glucosamine-6-phosphate [5]) was 4690 ± 580 µM and the “self-cleavage kobs at 2500 uM GlcN6P” value (glucosamine-6-phosphate [3]) was 2.42e-05 ± 1.1e-05 s⁻¹. The “self-cleavage kobs at 10000 uM GlcN6P” value (glucosamine-6-phosphate [4]) was 4.8e-05 ± 1.2e-05 s⁻¹.

With G40A C58U the kcat (glucosamine-6-phosphate [1]) was 4.57e-05 ± 1.8e-05 s⁻¹.

In the case of A33G C50A, the kcat (glucosamine-6-phosphate [1]) is reported as 1.1e-05 ± 2.3e-06 s⁻¹.

A14U C50U C68A was tested, and the kcat (glucosamine-6-phosphate [1]) was 3.75e-05 ± 1.4e-05 s⁻¹ and the “self-cleavage kobs at 10000 uM GlcN6P” value (glucosamine-6-phosphate [4]) was under 1e-05 s⁻¹.

With C10U A36U the kcat (glucosamine-6-phosphate [1]) was under 1e-05 s⁻¹, the “self-cleavage kobs at 40 uM GlcN6P” value (glucosamine-6-phosphate [6]) was under 1e-05 s⁻¹ and the “self-cleavage kobs at 160 uM GlcN6P” value (glucosamine-6-phosphate [7]) was under 1e-05 s⁻¹. The “self-cleavage kobs at 10000 uM GlcN6P” value (glucosamine-6-phosphate [4]) was under 1e-05 s⁻¹.

A39U U57C was tested, and the kcat (glucosamine-6-phosphate [1]) was 0.00022 ± 2.2e-05 s⁻¹, the KM (glucosamine-6-phosphate [5]) was 9720 ± 1500 µM and the “self-cleavage kobs at 2500 uM GlcN6P” value (glucosamine-6-phosphate [3]) was 4.56e-05 ± 8.7e-06 s⁻¹. The “self-cleavage kobs at 10000 uM GlcN6P” value (glucosamine-6-phosphate [4]) was 0.000111 ± 2.2e-05 s⁻¹.

For U30G G32C, the kcat (glucosamine-6-phosphate [1]) was 0.000158 ± 2.5e-05 s⁻¹, the “self-cleavage kobs at 2500 uM GlcN6P” value (glucosamine-6-phosphate [3]) was 0.000149 ± 3e-05 s⁻¹ and the “self-cleavage kobs at 10000 uM GlcN6P” value (glucosamine-6-phosphate [4]) was 0.000134 ± 1.6e-05 s⁻¹.

With A39G G40U the kcat (glucosamine-6-phosphate [1]) was 0.0022 ± 0.00044 s⁻¹, the KM (glucosamine-6-phosphate [5]) was 1420 ± 510 µM and the “self-cleavage kobs at 40 uM GlcN6P” value (glucosamine-6-phosphate [6]) was 9.64e-05 ± 1.6e-05 s⁻¹. The “self-cleavage kobs at 160 uM GlcN6P” value (glucosamine-6-phosphate [7]) was 0.000207 ± 4.9e-05 s⁻¹, the “self-cleavage kobs at 640 uM GlcN6P” value (glucosamine-6-phosphate [2]) was 0.000551 ± 8.8e-05 s⁻¹ and the “self-cleavage kobs at 2500 uM GlcN6P” value (glucosamine-6-phosphate [3]) was 0.0015 ± 0.00022 s⁻¹. The “self-cleavage kobs at 10000 uM GlcN6P” value (glucosamine-6-phosphate [4]) was 0.00197 ± 0.00022 s⁻¹.

C61U C67A showed a kcat (glucosamine-6-phosphate [1]) of 1.1e-05 ± 1.5e-06 s⁻¹.

With A48U U54G C70U the kcat (glucosamine-6-phosphate [1]) was 0.000549 ± 9.5e-05 s⁻¹, the KM (glucosamine-6-phosphate [5]) was 1760 ± 550 µM and the “self-cleavage kobs at 640 uM GlcN6P” value (glucosamine-6-phosphate [2]) was 0.000139 ± 2.9e-05 s⁻¹. For the same variant, the “self-cleavage kobs at 2500 uM GlcN6P” value (glucosamine-6-phosphate [3]) was 0.000369 ± 9.6e-05 s⁻¹ and the “self-cleavage kobs at 10000 uM GlcN6P” value (glucosamine-6-phosphate [4]) was 0.000445 ± 0.00012 s⁻¹.

In the case of U46A G60A, the kcat (glucosamine-6-phosphate [1]) is reported as under 1e-05 s⁻¹ and the “self-cleavage kobs at 640 uM GlcN6P” value (glucosamine-6-phosphate [2]) is reported as under 1e-05 s⁻¹.

Work on C11U U31C A52U yielded a kcat (glucosamine-6-phosphate [1]) of under 1e-05 s⁻¹.

For U45G A64G, the kcat (glucosamine-6-phosphate [1]) was 0.00935 ± 0.0026 s⁻¹, the KM (glucosamine-6-phosphate [5]) was 2790 ± 990 µM and the “self-cleavage kobs at 40 uM GlcN6P” value (glucosamine-6-phosphate [6]) was 0.000169 ± 2.8e-05 s⁻¹. For the same variant, the “self-cleavage kobs at 160 uM GlcN6P” value (glucosamine-6-phosphate [7]) was 0.000411 ± 0.00011 s⁻¹, the “self-cleavage kobs at 640 uM GlcN6P” value (glucosamine-6-phosphate [2]) was 0.00161 ± 0.0003 s⁻¹ and the “self-cleavage kobs at 2500 uM GlcN6P” value (glucosamine-6-phosphate [3]) was 0.00451 ± 0.00092 s⁻¹. The “self-cleavage kobs at 10000 uM GlcN6P” value (glucosamine-6-phosphate [4]) was 0.00759 ± 0.002 s⁻¹.

C58U C71U was tested, and the kcat (glucosamine-6-phosphate [1]) was 8.62e-05 ± 5e-06 s⁻¹, the KM (glucosamine-6-phosphate [5]) was 3200 ± 560 µM and the “self-cleavage kobs at 2500 uM GlcN6P” value (glucosamine-6-phosphate [3]) was 3.66e-05 ± 7.1e-06 s⁻¹. For the same variant, the “self-cleavage kobs at 10000 uM GlcN6P” value (glucosamine-6-phosphate [4]) was 6.56e-05 ± 6e-06 s⁻¹.

In the case of G40C U45G, the kcat (glucosamine-6-phosphate [1]) is reported as 0.000791 ± 0.00034 s⁻¹, the “self-cleavage kobs at 160 uM GlcN6P” value (glucosamine-6-phosphate [7]) is reported as 9.8e-05 ± 1.7e-05 s⁻¹ and the “self-cleavage kobs at 640 uM GlcN6P” value (glucosamine-6-phosphate [2]) is reported as 0.000646 ± 0.00013 s⁻¹. The “self-cleavage kobs at 2500 uM GlcN6P” value (glucosamine-6-phosphate [3]) was 0.000445 ± 7.5e-05 s⁻¹ and the “self-cleavage kobs at 10000 uM GlcN6P” value (glucosamine-6-phosphate [4]) was 0.00114 ± 0.00025 s⁻¹.

In the case of G32U G37A, the kcat (glucosamine-6-phosphate [1]) is reported as 4.33e-05 ± 1.3e-05 s⁻¹ and the “self-cleavage kobs at 10000 uM GlcN6P” value (glucosamine-6-phosphate [4]) is reported as 3.21e-05 ± 6.6e-06 s⁻¹.

In the case of A52G C70G, the kcat (glucosamine-6-phosphate [1]) is reported as 6.89e-05 ± 3.6e-06 s⁻¹, the KM (glucosamine-6-phosphate [5]) is reported as 65.2 ± 26 µM and the “self-cleavage kobs at 160 uM GlcN6P” value (glucosamine-6-phosphate [7]) is reported as 5.53e-05 ± 1e-05 s⁻¹. The “self-cleavage kobs at 640 uM GlcN6P” value (glucosamine-6-phosphate [2]) was 5.76e-05 ± 1.2e-05 s⁻¹, the “self-cleavage kobs at 2500 uM GlcN6P” value (glucosamine-6-phosphate [3]) was 6.23e-05 ± 7.9e-06 s⁻¹ and the “self-cleavage kobs at 10000 uM GlcN6P” value (glucosamine-6-phosphate [4]) was 7.2e-05 ± 6.7e-06 s⁻¹.

With G37A U45G the kcat (glucosamine-6-phosphate [1]) was 0.00169 ± 0.00018 s⁻¹, the KM (glucosamine-6-phosphate [5]) was 2870 ± 530 µM and the “self-cleavage kobs at 160 uM GlcN6P” value (glucosamine-6-phosphate [7]) was 8.96e-05 ± 3.2e-05 s⁻¹. For the same variant, the “self-cleavage kobs at 640 uM GlcN6P” value (glucosamine-6-phosphate [2]) was 0.000349 ± 6.9e-05 s⁻¹, the “self-cleavage kobs at 2500 uM GlcN6P” value (glucosamine-6-phosphate [3]) was 0.000738 ± 0.00016 s⁻¹ and the “self-cleavage kobs at 10000 uM GlcN6P” value (glucosamine-6-phosphate [4]) was 0.00132 ± 0.00019 s⁻¹.

A48G C68A was tested, and the kcat (glucosamine-6-phosphate [1]) was 1.35e-05 ± 5e-06 s⁻¹ and the “self-cleavage kobs at 40 uM GlcN6P” value (glucosamine-6-phosphate [6]) was under 1e-05 s⁻¹.
